Experimental findings from US12404345B2, “Humanized antibodies against iRHOM2” (SCIRHOM GMBH, priority 2021, dated 2025) are described below.

Holding throughout (settings): antibody at 3 μg/ml
For one assay, the target named is T1, dog iRhom2 (Canis lupus familiaris, UniProt Q00M95).
T1 construct: pMSCV-dog-iR2-FL-WT-T7 encoding dog iRhom2 full length wild type; expressed in transfected cells; host or cells: immortalized iRhom1/2-/- DKO mouse embryonic fibroblasts, pMSCV retroviral infection
T1 sequence (Q00M95 1-827): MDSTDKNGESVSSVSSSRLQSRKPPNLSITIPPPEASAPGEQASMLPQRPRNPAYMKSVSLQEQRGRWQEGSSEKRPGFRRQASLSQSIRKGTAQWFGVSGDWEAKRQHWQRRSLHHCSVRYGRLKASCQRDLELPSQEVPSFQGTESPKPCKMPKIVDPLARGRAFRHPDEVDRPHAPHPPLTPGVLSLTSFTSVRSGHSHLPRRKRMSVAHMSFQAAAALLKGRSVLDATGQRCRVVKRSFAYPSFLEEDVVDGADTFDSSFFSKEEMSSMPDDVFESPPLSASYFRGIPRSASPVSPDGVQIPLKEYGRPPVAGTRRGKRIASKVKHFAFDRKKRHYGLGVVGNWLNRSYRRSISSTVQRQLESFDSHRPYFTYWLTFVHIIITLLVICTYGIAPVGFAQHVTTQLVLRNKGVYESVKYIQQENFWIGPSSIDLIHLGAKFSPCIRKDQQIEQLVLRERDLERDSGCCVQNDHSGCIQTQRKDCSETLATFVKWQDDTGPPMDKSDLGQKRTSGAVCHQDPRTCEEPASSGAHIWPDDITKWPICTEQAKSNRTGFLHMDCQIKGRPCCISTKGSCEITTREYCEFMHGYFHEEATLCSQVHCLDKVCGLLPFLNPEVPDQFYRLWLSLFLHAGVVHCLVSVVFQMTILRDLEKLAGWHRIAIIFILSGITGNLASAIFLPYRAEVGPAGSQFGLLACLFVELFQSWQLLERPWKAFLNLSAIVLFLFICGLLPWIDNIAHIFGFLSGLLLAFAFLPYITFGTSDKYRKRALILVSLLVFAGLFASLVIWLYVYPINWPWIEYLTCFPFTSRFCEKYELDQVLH
The assay can be described thus: FACS cross-reactivity on MEF-DKO-Dog-iR2-FL-WT-T7 cells. It counts as binding. An excerpt:
(§1) Next, iRhom1/2−/− DKO MEFs stably expressing a tagged form of rhesus monkey, cynomolgus monkey, dog or rabbit iRhom2 were generated in order to determine cross-reactivity of the antibodies of the invention with the respective orthologue of iRhom2. iRhom1/2−/− DKO MEFs stably expressing a tagged form of rhesus monkey, cynomolgus monkey, dog or rabbit iRhom1 were generated to confirm specificity for iRhom2 versus iRhom1 of these species.
(§2) In brief, on day 1, Phoenix-ECO cells (American Type Culture Collection, USA) were seeded on 6-well tissue culture plates (Greiner, Germany) in standard growth medium at 8×10^5 cells per well and kept overnight at 37° C., 5% CO2. On day 2, the medium was replaced by fresh medium supplemented with chloroquine (Sigma-Aldrich, USA) at a final concentration of 25 μM. Applying the calcium phosphate method, cells were transfected with 2 μg/ml of pMSCV (Clontech, USA) empty vector, pMSCV-rhesus-iR2-FL-WT-T7 encoding rhesus monkey iRhom2 full length wild type C-terminally tagged with 3 consecutive copies of the T7 epitope, pMSCV-cyno-iR2-FL-WT-T7 encoding cynomolgus monkey iRhom2 full length wild type C-terminally tagged with 3 consecutive copies of the T7 epitope, pMSCV-dog-iR2-FL-WT-T7 encoding dog iRhom2 full length wild type C-terminally tagged with 3 consecutive copies of the T7 epitope or pMSCV-rabbit-iR2-FL-WT-T7 encoding rabbit iRhom2 full length wild type C-terminally tagged with 3 consecutive copies of the T7 epitope, respectively, and were kept at 37° C., 5% CO2. After 7 hours, the transfections were stopped by replacing cell supernatants with standard growth medium lacking chloroquine, and cells were incubated at 37° C., 5% CO2 to allow virus production overnight. In parallel, immortalized iRhom1/2−/− DKO MEFs as target cells for retroviral infection were seeded on 6-well tissue culture plates (Greiner, Germany) in standard growth medium at 1×10^5 cells per well and were also kept overnight at 37° C., 5% CO2. On day 3, the supernatants of Phoenix-ECO cells releasing pMSCV, pMSCV-rhesus-iR2-FL-WT-T7, pMSCV-cyno-iR2-FL-WT-T7, pMSCV-dog-iR2-FL-WT-T7 or pMSCV-rabbit-iR2-FL-WT-T7 ecotrophic virus, respectively were collected, filtered with 0.45 μm CA filters, and supplemented with 4 μg/ml of polybrene (Sigma-Aldrich, USA). Upon removal of medium from the immortalized iRhom1/2−/− DKO MEFs, the virus containing supernatants were added to the target cells for 4 hours at 37° C., 5% CO2 for first infection. Simultaneously, Phoenix-ECO cells were re-incubated with fresh medium, which, after another 4 hours, was filtered and used for the second infection of the respective target cell populations, again in the presence of 4 μg/ml of polybrene. Likewise, a third, but overnight infection cycle was performed. On day 4, virus containing cell supernatants were replaced by fresh standard growth medium. From day 5 onwards, cells were grown in the presence of 2 mg/ml of geneticin (G418, Thermo Fisher Scientific, USA) for the selection of immortalized MEF-DKO-EV control cells stably infected with pMSCV empty vector, pMSCV-rhesus-iR2-FL-WT-T7 cells stably expressing rhesus monkey iRhom2 full length wild type C-terminally tagged with 3 consecutive copies of the T7 epitope, pMSCV-cyno-iR2-FL-WT-T7 cells stably expressing cynomolgus monkey iRhom2 full length wild type C-terminally tagged with 3 consecutive copies of the T7 epitope, pMSCV-dog-iR2-FL-WT-T7 cells stably expressing dog iRhom2 full length wild type C-terminally tagged with 3 consecutive copies of the T7 epitope or pMSCV-rabbit-iR2-FL-WT-T7 cells stably expressing rabbit iRhom2 full length wild type C-terminally tagged with 3 consecutive copies of the T7 epitope, respectively. Upon propagation, cells were stocked for future usage. In parallel, iRhom1/2−/− DKO MEFs stably expressing a tagged form of rhesus monkey, cynomolgus monkey, dog or rabbit iRhom1 were generated in an analogous manner. […]

For another assay, the system named is dog iRhom1. Description: FACS binding on MEF-DKO-Dog-iR1-FL-WT-T7 cells.
Description: as §1, §2
(In general: Flow cytometry measures light scatter and fluorescence of single cells or particles in a stream.)

The next assay concerns rabbit iRhom2. Description: FACS cross-reactivity on MEF-DKO-Rabbit-iR2-FL-WT-T7 cells. It is filed as binding.
Description: as §1, §2

B1: 16-B-03: humanized antibody binding human iRhom2; HCVD SEQ ID NO 1, LCVD SEQ ID NO 5 (antibody, V domains shown)
VH: QVTLRESGPALVKPTQTLTLTCTFSGFSLSTFALGVGWIRQPPGKALEWLAHIWWDDDKYYNPALKSRLTISKDTSKNQVVLTITNMDPVDTATYYCARITTYYYGMDYWGQGTLVTVSS
VL: EIVMTQSPDFQSVTPKEKVTITCRASQSIGNHLHWYQQKPDASPKLLIKYASQSISGVPSRFSGSGSGTDFTLTINSLEAEDAATYFCQQSYQWPLTFGQGTKLEIK
modifications: antibody sequences
In the case of B1, in the assay with dog iRhom2, the “binding to dog iRhom2 on MEF-DKO-Dog-iR2-FL-WT-T7 cells” value (“binding to dog iRhom2” below) is listed as “Strong binding”. Further, the “binding to dog iRhom1 on MEF-DKO-Dog-iR1-FL-WT-T7 cells” value (“binding to dog iRhom1” below) with dog iRhom1 is recorded as “no significant binding”. In addition, in the assay with rabbit iRhom2, the “binding to rabbit iRhom2 on MEF-DKO-Rabbit-iR2-FL-WT-T7 cells” value (“binding to rabbit iRhom2” below) is on record as “Strong binding”.

B2: 16-B-07: humanized antibody binding human iRhom2; HCVD SEQ ID NO 17, LCVD SEQ ID NO 21 (antibody, V domains shown)
VH: QVTLRESGPALVKPTQTLTLTCTFSGFSLSTFALGVGWIRQPPGKALEWLAHIWWDEDKYYNPALKSRLTISKDTSKNQVVLTITNMDPVDTATYYCARITTYYYGMDYWGQGTLVTVSS
VL: EIVMTQSPDFQSVTPKEKVTITCRASQSIGNHLHWYQQKPDASPKLLIKYASQSISGVPSRFSGSGSGTDFTLTINSLEAEDAATYFCQQSYQWPLTFGQGTKLEIK
modifications: antibody sequences
For B2, in the assay with dog iRhom2, the “binding to dog iRhom2” value is “recognize dog iRhom2”. For the same molecule, the “binding to dog iRhom1” value in the assay on dog iRhom1 was “do not recognize dog iRhom1”. Besides, the “binding to rabbit iRhom2” value with rabbit iRhom2 was “recognize rabbit iRhom2”.

B3: 16-B-05: humanized antibody binding human iRhom2; HCVD SEQ ID NO 9, LCVD SEQ ID NO 13 (antibody, V domains shown)
VH: QVTLRESGPALVKPTQTLTLTCTFSGFSLSTFALGVGWIRQPPGKALEWLAHIWWDEDKYYNPALKSRLTISKDTSKNQVVLTITNMDPVDTATYYCARITTYYYGMDYWGQGTLVTVSS
VL: EIVMTQSPDFQSVTPKEKVTITCRASQSIGNHLHWYQQKPDASPKLLIKYASQSISGVPSRFSGSGSGTDFTLTINSLEAEDAATYFCQQSYNWPLTFGQGTKLEIK
modifications: antibody sequences
As to B3, in the assay with dog iRhom2, the “binding to dog iRhom2” value is on record as “recognize dog iRhom2”. Moreover, the “binding to dog iRhom1” value with dog iRhom1 is “do not recognize dog iRhom1”. Moreover, the “binding to rabbit iRhom2” value with rabbit iRhom2 was “recognize rabbit iRhom2”.

B4: 23-B-04: humanized antibody binding human iRhom2; HCVD SEQ ID NO 25, LCVD SEQ ID NO 29 (antibody, V domains shown)
VH: QVTLRESGPALVKPTQTLTLTCTFSGFSLSTFGMGVGWIRQPPGKALEWLAHIWWDDEKYYNSALKSRLTISKDTSKNQVVLTITNMDPVDTATYYCARISNYGSNYWYFNVWGQGTLVTVSS
VL: AIQLTQSPSSLSASVGDRVTITCRASSSVSYMYWYQQKPGKAPKVLIYDTSNLASGVPSRFSGSGSGTDYTLTISSLQPEDFATYYCQQWNAYPLTFGQGTKLEIK
modifications: antibody sequences
With B4, the “binding to dog iRhom2” value with dog iRhom2 was “recognize dog iRhom2”. Moreover, the “binding to dog iRhom1” value with dog iRhom1 was “do not recognize dog iRhom1”. In addition, the “binding to rabbit iRhom2” value with rabbit iRhom2 is “recognize rabbit iRhom2”.

B5: 42-B-02: humanized antibody binding human iRhom2; HCVD SEQ ID NO 33, LCVD SEQ ID NO 37 (antibody, V domains shown)
VH: QVTLRESGPALVKPTQTLTLTCTFSGFSLSTFGRGVGWIRQPPGKALEWLAHIWWDDEKYYNSALKSRLTISKDTSKNQVVLTITNMDPVDTATYYCARIQNYGSNYWYFDVWGQGTLVTVSS
VL: AIQLTQSPSSLSASVGDRVTITCRASSRISYMFWYQQKPGKAPKVLIYDTSNLASGVPSRFSGSGSGTDYTLTISSLQPEDFATYYCQQWNSYPLTFGQGTKLEIK
modifications: antibody sequences
On to B5, for which the “binding to dog iRhom2” value with dog iRhom2 was “recognize dog iRhom2”. In addition, in the assay with dog iRhom1, the “binding to dog iRhom1” value is listed as “do not recognize dog iRhom1”. The “binding to rabbit iRhom2” value with rabbit iRhom2 is given as “recognize rabbit iRhom2”.

B6: 42-B-04: humanized antibody binding human iRhom2; HCVD SEQ ID NO 41, LCVD SEQ ID NO 45 (antibody, V domains shown)
VH: QVTLRESGPALVKPTQTLTLTCTFSGFSLSTFGRGVGWIRQPPGKALEWLAHIWWDDEKYYNSALKSRLTISKDTSKNQVVLTITNMDPVDTATYYCARIQNYGSNYWYFDVWGQGTLVTVSS
VL: AIQLTQSPSSLSASVGDRVTITCRASSRISYMFWYQQKPGKAPKVLIYDTSNLASGVPSRFSGSGSGTDYTLTISSLQPEDFATYYCQQWNAYPLTFGQGTKLEIK
modifications: antibody sequences
Turning to B6, the “binding to dog iRhom2” value in the assay with dog iRhom2 is “recognize dog iRhom2”. The “binding to dog iRhom1” value with dog iRhom1 is reported as “do not recognize dog iRhom1”. Also, the “binding to rabbit iRhom2” value in the assay with rabbit iRhom2 is given as “recognize rabbit iRhom2”.
